In patent publication US20230201308A1, “TREATMENT OF CORONAVIRUS INFECTION WITH […]” (Eiger Biopharmaceuticals, Inc., priority 2020, published 2023):
Like-named read-outs stand apart in the source and are kept apart here.

Assays:
[1] = Third trial (TOGETHER): treatment emergent adverse events and drug adherence; format: in vivo, human
Text: An adverse event (AE) is any adverse change from the participant's baseline (pre-treatment) condition, including intercurrent illness which occurs during the course of the trial, after the consent form has been signed, whether the event is considered related to treatment or not.
A serious adverse event (SAE) is any adverse event that at any dose: • results in death (grade 5 event) • is life-threatening (grade 4 event) • requires inpatient hospitalization or prolongation of existing hospitalization • results in persistent or significant disability or incapacity • is a congenital anomaly/birth defect
Study personnel collected outcome data via in-person, and via telephone or WhatsApp using video-teleconferencing on Days 1, 2, 3, 4, 5, 7, 10, 14, and 28. Adverse events were recorded at the time they occurred. All serious and non-serious adverse events were reported to study personnel as per local regulatory requirements. Reportable adverse events included serious adverse events, adverse events resulting in study medication discontinuation, and adverse events assessed as possibly related to study medication.

[2] = system: SARS-CoV-2; assay: First trial: single 180 mcg dose vs placebo in 120 participants with COVID-19; format: in vivo, human
Experimental: Using the methods and criteria described above in Examples 1-3, a first trial was performed. In the first trial, 120 participants were enrolled; 70 (58.3%) were male, 75 (62.5%) identified as Latinx, and the median duration of symptoms prior to randomization was 5 days. Sixty participants were randomly assigned to receive 180 mcg pegylated interferon lambda-1a, and 60 participants were assigned to receive a placebo. […] Subjects viral samples were taken by oral pharyngeal swabs. The median time to cessation of viral shedding was 7 days in both arms (hazard ratio [HR] for duration of shedding 0.81 comparing Lambda vs. placebo; 95% confidence interval [CI] 0.56 to 1.19; p=0.29). No difference in time to resolution of symptoms was observed comparing interferon lambda vs. placebo (HR 0.94; 95% CI 0.64 to 1.39; p=0.76). Two serious adverse events were reported in each arm. Liver transaminase elevations were more common in the interferon lambda vs. placebo arm (15/60 vs 5/60; p=0.027).

[3] = system: SARS-CoV-2 (2019-nCoV/USA-WA1/2020); format: cell-based; conditions: HAE pretreated basolaterally 24 hr
[4] = ITT preliminary, n=916 vs placebo 1020
[5] = Treated within 3 days of symptom onset, n=539 vs placebo 586
[6] = Treated within 5 days of symptom onset, n=800 vs placebo 879
[7] = Unvaccinated population, n=143 vs placebo 176

B1: pegylated interferon lambda-1a (protein)
chain: MKPTTTGKGCHIGRFKSLSPQELASFKKARDALEESLKLKNWSCSSPVFPGNWDLRLLQVRERPVALEAELALTLKVLEAAAGPALEDVLDQPLHTLHHILSQLQACIQPQPTAGPRPRGRLHHWLHRLQEAPKKESAGCLEASVTFNLFRLLTRDLKYVADGNLSLRTSTHPEST
modifications: PEG
notes: 180 mcg subcutaneous injection
TEAE, Grade 1, % of patients [1, 4]: (1.7%)
TEAE, Grade 1, RR (95% CrI) vs placebo [1, 4]: 0.75 (0.40, 1.38)
TEAE, Grade 2, % of patients [1, 4]: (9%)
TEAE, Grade 2, RR (95% CrI) vs placebo [1, 4]: 1.00 (0.75, 1.33)
TEAE, Grade 3, % of patients [1, 4]: (2.2%)
TEAE, Grade 3, RR (95% CrI) vs placebo [1, 4]: 0.70 (0.40, 1.20)
TEAE, Grade 4, % of patients [1, 4]: (0.8%)
TEAE, Grade 4, RR (95% CrI) vs placebo [1, 4]: 1.11 (0.41, 3.05)
TEAE, Grade 5, % of patients [1, 4]: (0.3%)
TEAE, Grade 5, RR (95% CrI) vs placebo [1, 4]: 0.88 (0.21, 3.40)
Number experiencing TEAEs: % ([1]; N = 931): (14.7%)
Number experiencing TEAEs: n ([1]; N = 931): 137
Number experiencing possibly treatment-related TEAS: % ([1]; N = 931): (0.4%)
Number experiencing possibly treatment-related TEAS: n ([1]; N = 931): 4
Number experiencing serious TEAEs: % ([1]; N = 931): (3.4%)
Number experiencing serious TEAEs: n ([1]; N = 931): 32
TEAE, Grade 1: % ([1]; N = 931): (2.9%)
TEAE, Grade 1: n ([1]; N = 931): 27
TEAE, Grade 2: % ([1]; N = 931): (9.2%)
TEAE, Grade 2: n ([1]; N = 931): 86
TEAE, Grade 3: % ([1]; N = 931): (2.3%)
TEAE, Grade 3: n ([1]; N = 931): 21
TEAE, Grade 4: % ([1]; N = 931): (0.9%)
TEAE, Grade 4: n ([1]; N = 931): 8
TEAE, Grade 5: % ([1]; N = 931): (0.4%)
TEAE, Grade 5: n ([1]; N = 931): 4
Number experiencing TEAEs: Probability of Superiority ([1]; N = 931 vs placebo N = 1018): 88.5
Number experiencing TEAEs: RR (95% CrI), estimated treatment effect ([1]; N = 931 vs placebo N = 1018): 0.88 (0.71, 1.08)
Number experiencing possibly treatment-related TEAS: Probability of Superiority ([1]; N = 931 vs placebo N = 1018): 82.8
Number experiencing possibly treatment-related TEAS: RR (95% CrI), estimated treatment effect ([1]; N = 931 vs placebo N = 1018): 0.59 (0.18, 1.74)
Number experiencing serious TEAEs: Probability of Superiority ([1]; N = 931 vs placebo N = 1018): 93.6
Number experiencing serious TEAEs: RR (95% CrI), estimated treatment effect ([1]; N = 931 vs placebo N = 1018): 0.72 (0.46, 1.10)
TEAE, Grade 1: Probability of Superiority ([1]; N = 931 vs placebo N = 1018): 84.5
TEAE, Grade 1: RR (95% CrI), estimated treatment effect ([1]; N = 931 vs placebo N = 1018): 0.78 (0.48, 1.26)
TEAE, Grade 2: Probability of Superiority ([1]; N = 931 vs placebo N = 1018): 64.0
TEAE, Grade 2: RR (95% CrI), estimated treatment effect ([1]; N = 931 vs placebo N = 1018): 0.95 (0.72, 1.25)
TEAE, Grade 3: Probability of Superiority ([1]; N = 931 vs placebo N = 1018): 93.9
TEAE, Grade 3: RR (95% CrI), estimated treatment effect ([1]; N = 931 vs placebo N = 1018): 0.66 (0.39, 1.11)
TEAE, Grade 4: Probability of Superiority ([1]; N = 931 vs placebo N = 1018): 42.6
TEAE, Grade 4: RR (95% CrI), estimated treatment effect ([1]; N = 931 vs placebo N = 1018): 1.09 (0.42, 2.86)
TEAE, Grade 5: Probability of Superiority ([1]; N = 931 vs placebo N = 1018): 67.5
TEAE, Grade 5: RR (95% CrI), estimated treatment effect ([1]; N = 931 vs placebo N = 1018): 0.76 (0.22, 2.46)
TEAE, Grade 1, % of patients [1, 5]: (0.9%)
TEAE, Grade 1, RR (95% CrI) vs placebo [1, 5]: 0.53 (0.18, 1.38)
TEAE, Grade 2, % of patients [1, 5]: (9.8%)
TEAE, Grade 2, RR (95% CrI) vs placebo [1, 5]: 1.13 (0.78, 1.63)
TEAE, Grade 3, % of patients [1, 5]: (1.3%)
TEAE, Grade 3, RR (95% CrI) vs placebo [1, 5]: 0.47 (0.19, 1.05)
TEAE, Grade 4, % of patients [1, 5]: (0.7%)
TEAE, Grade 4, RR (95% CrI) vs placebo [1, 5]: 3.01 (0.61, 23.67)
TEAE, Grade 5, % of patients [1, 5]: (0%)
TEAE, Grade 5, RR (95% CrI) vs placebo [1, 5]: 0.21 (0.01, 1.64)
TEAE, Grade 1, % of patients [1, 6]: (1.8%)
TEAE, Grade 1, RR (95% CrI) vs placebo [1, 6]: 0.78 (0.40, 1.51)
TEAE, Grade 2, % of patients [1, 6]: (8.9%)
TEAE, Grade 2, RR (95% CrI) vs placebo [1, 6]: 0.95 (0.70, 1.29)
TEAE, Grade 3, % of patients [1, 6]: (1.9%)
TEAE, Grade 3, RR (95% CrI) vs placebo [1, 6]: 0.56 (0.30, 1.01)
TEAE, Grade 4, % of patients [1, 6]: (0.8%)
TEAE, Grade 4, RR (95% CrI) vs placebo [1, 6]: 1.99 (0.58, 7.88)
TEAE, Grade 5, % of patients [1, 6]: (0.4%)
TEAE, Grade 5, RR (95% CrI) vs placebo [1, 6]: 0.86 (0.20, 3.40)
TEAE, Grade 1, % of patients [1, 7]: 5.6%
TEAE, Grade 1, RR (95% CrI) vs placebo [1, 7]: 1.23 (0.49, 3.08)
TEAE, Grade 2, % of patients [1, 7]: 11.9%
TEAE, Grade 2, RR (95% CrI) vs placebo [1, 7]: 1.16 (0.63, 2.16)
TEAE, Grade 3, % of patients [1, 7]: 3.5%
TEAE, Grade 3, RR (95% CrI) vs placebo [1, 7]: 0.60 (0.21, 1.53)
TEAE, Grade 4, % of patients [1, 7]: 1.4%
TEAE, Grade 4, RR (95% CrI) vs placebo [1, 7]: 0.58 (0.12, 2.22)
TEAE, Grade 5, % of patients [1, 7]: 0 (0%)
TEAE, Grade 5, RR (95% CrI) vs placebo [1, 7]: 1.21 (0.03, 47.34)
treatment emergent adverse events compared to placebo ([1]; final analysis, listed as peginterferon lambda): no important differences
Premature discontinuation, Request by participant to terminate study treatment, % ([1]; n=916): (0.0%)
Premature discontinuation, reason Hospitalization, % ([1]; n=916): (0.0%)
Premature discontinuation, reason Non-compliance with Study Therapy, % ([1]; n=916): (0.0%)
Premature discontinuation, reason Other, % ([1]; n=916): (0.0%)
Prematurely discontinued study drug, % ([1]; n=916, within 28 days of randomization): (0.0%)
incidence of any adverse event compared with placebo ([1]; preliminary ITT): indistinguishable
shedding cessation relative to placebo ([2]; seronegative at baseline): delayed shedding cessation relative to placebo
shedding cessation relative to placebo ([2]; seropositive at baseline): appeared to hasten shedding cessation
effect on duration of viral shedding and symptoms compared to placebo ([2]; single 180 mcg s.c.): neither shortened the duration of SARS-CoV-2 viral shedding nor improved symptoms
hazard ratio for duration of shedding vs. placebo ([2]; single 180 mcg s.c.): 0.81
hazard ratio, time to resolution of symptoms vs. placebo ([2]; single 180 mcg s.c.): 0.94
liver transaminase elevations (participants of arm) ([2]; single 180 mcg s.c.): 15/60
serious adverse events reported in the arm ([2]; single 180 mcg s.c.): Two
tolerability ([2]; single 180 mcg s.c.): well tolerated
median time to cessation of viral shedding ([2]; single 180 mcg s.c., n=60): 7 days
SARS-CoV-2 infectious virus production (titer of apical washes, plaque assay) ([3]; […]): reducing viral load in infected cells
SARS-CoV-2 infectious virus production (titer of apical washes, plaque assay) ([3]; […];, listed as peg-IFN-λ1): potent dose dependent reduction
